The results in this text go back to PMC8921914.

The target of one test is FcRn (UniProt P55899). Kind of test: SPR. (In general: SPR reads the build-up and loss of mass on a sensor chip optically.)
The next test addresses FcγRI (UniProt P12314). Kind of test: SPR.

pKd: −log10 of the molar value.

One may read the pKd as the negative decadic logarithm of the Kd, by convention in mol/L. Low readings indicate a high Kd, high ones a low Kd.

Chain of UniProt P12314 (P12314 16-374): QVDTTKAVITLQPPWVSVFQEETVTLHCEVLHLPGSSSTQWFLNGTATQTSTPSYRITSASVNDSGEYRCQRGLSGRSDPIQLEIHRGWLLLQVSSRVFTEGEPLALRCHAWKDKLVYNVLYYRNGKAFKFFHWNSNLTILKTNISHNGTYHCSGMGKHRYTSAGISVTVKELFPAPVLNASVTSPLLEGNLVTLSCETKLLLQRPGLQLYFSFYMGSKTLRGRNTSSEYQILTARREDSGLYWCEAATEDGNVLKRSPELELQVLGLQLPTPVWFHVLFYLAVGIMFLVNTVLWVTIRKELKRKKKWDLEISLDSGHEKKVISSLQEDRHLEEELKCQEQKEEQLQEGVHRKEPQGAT
Chain of UniProt P55899 (P55899 whole entry, looked up, tested part not stated): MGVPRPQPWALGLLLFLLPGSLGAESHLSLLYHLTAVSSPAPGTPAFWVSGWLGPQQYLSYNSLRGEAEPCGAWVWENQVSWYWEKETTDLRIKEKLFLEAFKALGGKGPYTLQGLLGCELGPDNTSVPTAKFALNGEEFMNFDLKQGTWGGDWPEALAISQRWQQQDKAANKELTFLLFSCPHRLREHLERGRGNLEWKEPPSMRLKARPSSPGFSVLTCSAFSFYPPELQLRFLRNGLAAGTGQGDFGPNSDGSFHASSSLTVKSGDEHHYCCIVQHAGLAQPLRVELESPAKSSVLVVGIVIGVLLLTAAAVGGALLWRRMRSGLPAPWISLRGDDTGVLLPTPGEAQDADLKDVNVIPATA

As for CLN-049 (bispecific antibody), the pKd in the test with FcRn and in the test with FcγRI was below 3.00 in each case.
